Experimental data taken from patent US20260043004A1 (IMMPACT BIO, published 2026).

Target: T1, anti-CD19/CD20 CAR having the amino acid sequence of SEQ ID NO: 2 (construct CC314)
T1 construct: Chimeric antigen receptor on the surface of transduced T cells: Leu16 scFv (VL-VH), (G4S)4, FMC63 scFv (VH-VL), IgG4 spacer, CD28 TM, 4-1BB, CD3 zeta; also called CD19/20 CAR; CD 19/20 CAR
Assay: flow cytometry staining of T cells (donor 1917) transduced with CD19/20 CAR lentiviral vector

T1 sequence (chain, as listed by the source): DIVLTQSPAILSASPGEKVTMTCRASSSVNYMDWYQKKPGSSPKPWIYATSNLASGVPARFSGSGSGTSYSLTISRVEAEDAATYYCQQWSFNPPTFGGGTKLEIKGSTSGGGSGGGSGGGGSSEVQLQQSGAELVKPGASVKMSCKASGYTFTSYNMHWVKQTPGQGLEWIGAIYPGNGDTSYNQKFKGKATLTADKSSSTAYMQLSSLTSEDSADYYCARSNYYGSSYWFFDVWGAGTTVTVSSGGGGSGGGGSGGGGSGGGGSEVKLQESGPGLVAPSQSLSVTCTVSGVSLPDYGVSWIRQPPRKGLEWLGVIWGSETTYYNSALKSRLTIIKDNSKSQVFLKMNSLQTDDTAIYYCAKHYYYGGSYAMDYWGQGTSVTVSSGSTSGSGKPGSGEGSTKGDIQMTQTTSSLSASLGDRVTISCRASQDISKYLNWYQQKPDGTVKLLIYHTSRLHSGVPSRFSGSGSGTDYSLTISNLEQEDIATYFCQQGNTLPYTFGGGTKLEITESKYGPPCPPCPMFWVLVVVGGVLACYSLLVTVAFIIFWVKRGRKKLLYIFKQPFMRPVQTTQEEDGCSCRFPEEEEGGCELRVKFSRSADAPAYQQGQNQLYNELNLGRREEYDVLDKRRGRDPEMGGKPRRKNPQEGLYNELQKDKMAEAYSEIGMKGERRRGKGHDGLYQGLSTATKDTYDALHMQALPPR

% Positive Cells: 68.1%
B1: CD20 Protein-Biotin (Acros) (other, UniProt P11836 1-297, looked up)
chain: MTTPRNSVNGTFPAEPMKGPIAMQSGPKPLFRRMSSLVGPTQSFFMRESKTLGAVQIMNGLFHIALGGLLMIPAGIYAPICVTVWYPLWGGIMYIISGSLLAATEKNSRKCLVKGKMIMNSLSLFAAISGMILSIMDILNIKISHFLKMESLNFIRAHTPYINIYNCEPANPSEKNSPSTQYCYSIQSLFLGILSVMLIFAFFQELVIAGIVENEWKRTCSRPKSNIVLLSAEEKKEQTIEIKEEVVGLTETSSQPKNEEDIEIIPIQEEEEEETETNFPEPPQDQESSPIENDSSP
modifications: biotin (site not stated)
notes: Bought detection reagent
